Results on five molecules are retold here after US20120077731A1 (Ablynx, published 2012).

To fix the notation:
B4: Human soluble IL-6R (receptor, UniProt P08887 20-358, looked up)
chain: LAPRRCPAQEVARGVLTSLPGDSVTLTCPGVEPEDNATVHWVLRKPAAGSHPSRWAGMGRRLLLRSVQLHDSGNYSCYRAGRPAGTVHLLVDVPPEEPQLSCFRKSPLSNVVCEWGPRSTPSLTTKAVLLVRKFQNSPAEDFQEPCQYSQESQKFSCQLAVPEGDSSFYIVSMCVASSVGSKFSKTQTFQGCGILQPDPPANITVTAVARNPRWLSVTWQDPHSWNSSFYRLRFELRYRAERSKTFTTWMVKDLQHHCVIHDAWSGLRHVVQLRAQEEFGQGEWSEWSPEAMGTPWTESRSPPAENEVSTPMQALTTNKDDDNILFRDSANATSLPVQD
notes: Soluble recombinant form; biotinylated in some assays; also called hIL-6R; human IL-6R

Assay [1] concerns the target B4. In words: SPR Biacore 3000, IL-6R amine-coupled to CM5.
Description: (§1) Nanobodies were injected at 5 different concentrations between 1 and 50 nM. Flow rate was 45 μl/min in all experiments. Association and dissociation phase were 3 and 10 min, respectively. The chip was regenerated using Glycine/HCl pH 1.5.
Assay [2] concerns the target B4. In words: Alphascreen, inhibition of bio-IL-6 binding to IL-6R.
Description: (§2) Finally streptavidin donor beads were added and after 1 hour incubator the plate was read on the Envision microplate reader.
In assay [3] the target is B4. As to the kind of experiment: inhibition of the IL-6/IL-6R interaction, summary table C-13.
Description: as §2
In assay [4] the target is B4. As to the kind of experiment: competition for IL-6R, competitor reference Fab, summary table C-13.
Assay [5] concerns the target B4. As to the kind of experiment: Alphascreen, 100 nM Nanobody, 0.4 nM bio-IL-6R; competitor: reference Fab. Background: Alpha assays give light when donor and acceptor beads are brought close together.
Assay [6] deals with B4. As to the kind of experiment: summary table C-13 of Nanobody characteristics, Kd on IL-6R; summary table C-13.
The target in assay [7] is T1, Mouse IL-6R (mouse, UniProt P22272 20-364, limits assumed).
T1 construct: also called mouse sIL-6R
T1 sequence (looked up): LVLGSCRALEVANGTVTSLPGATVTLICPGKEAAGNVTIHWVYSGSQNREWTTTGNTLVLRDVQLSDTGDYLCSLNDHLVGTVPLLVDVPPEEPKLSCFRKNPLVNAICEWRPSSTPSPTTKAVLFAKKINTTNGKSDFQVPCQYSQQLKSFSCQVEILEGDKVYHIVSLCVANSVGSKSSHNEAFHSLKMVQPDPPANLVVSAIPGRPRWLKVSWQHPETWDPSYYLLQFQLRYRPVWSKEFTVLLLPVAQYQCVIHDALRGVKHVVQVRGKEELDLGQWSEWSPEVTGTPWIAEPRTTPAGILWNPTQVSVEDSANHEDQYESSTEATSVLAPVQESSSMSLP
As to the kind of experiment: ELISA: plate coated with 1 µg/ml mouse IL-6R, 500 nM Nanobody, anti-myc + anti-mouse-HRP.
Description: Detection was performed with anti-myc and anti-mouse-HRP as first and second antibody respectively.

Assay [8] has as its target T2, Human membrane IL-6R on cells (human, UniProt P08887 20-468).
T2 sequence (looked up): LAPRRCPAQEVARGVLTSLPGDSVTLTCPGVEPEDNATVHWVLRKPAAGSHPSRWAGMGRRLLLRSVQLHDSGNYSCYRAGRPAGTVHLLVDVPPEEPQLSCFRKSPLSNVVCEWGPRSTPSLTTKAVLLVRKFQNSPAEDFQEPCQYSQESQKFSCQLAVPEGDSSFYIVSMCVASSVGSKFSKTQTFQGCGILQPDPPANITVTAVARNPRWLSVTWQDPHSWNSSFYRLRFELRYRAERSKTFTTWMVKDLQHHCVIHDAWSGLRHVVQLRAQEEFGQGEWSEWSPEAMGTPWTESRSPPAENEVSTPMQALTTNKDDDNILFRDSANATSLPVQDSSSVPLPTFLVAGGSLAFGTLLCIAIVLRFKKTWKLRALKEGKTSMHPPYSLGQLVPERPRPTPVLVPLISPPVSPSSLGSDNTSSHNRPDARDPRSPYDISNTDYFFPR
In words: cell-based or functional assay.

Assay [9] addresses T2, Human membrane IL-6R on cells. In words: cell-based or functional assay. The source holds these as a separate data set.
For assay [10] the target is unchanged. As to the kind of experiment: cell-based or functional assay. This is another data set of the same source.
Assay [11] concerns the target B4. As to the kind of experiment: Biacore off-rate, periplasmic extract. (SPR reads the build-up and loss of mass on a sensor chip optically.)
In assay [12] the target is B4. In words: summary table C-13 of Nanobody characteristics, Kd on IL-6R.
Description: as §1
The target of assay [13] is B4. In words: SPR Biacore 3000, IL-6R amine-coupled to CM5; paired with the second koff of IL6R06 (r17c3).
Description: as §1
Assay [14] concerns the target B4. As to the kind of experiment: SPR Biacore 3000, IL-6R amine-coupled to CM5; first koff listed; a separate determination, not the one behind the Kd.
Assay [15] concerns the target B4. As to the kind of experiment: SPR Biacore 3000, IL-6R amine-coupled to CM5; second koff of IL6R02; the one that fits kon and Kd.
Description: as §1
In assay [16] the target is T3, PMP20A11.
T3 construct: also called IL6R20A11; IL6R300; not shown: c-myc and (His)6 tags
As to the kind of experiment: competitive binding ELISA, 0.05 nM IL6R20A11 pre-incubated with sIL-6R, free Nanobody captured on sIL-6R. A general note: In an ELISA, binding on a coated surface is turned into a signal by an enzyme label.

The target of assay [17] is T3, PMP20A11. In words: competition ELISA: IL6R20A11 (0.4 nM) pre-incubated with a series of recombinant sIL-6R; free IL6R20A11 captured on biotinylated human sIL-6R on neutravidin.
Assay [18] concerns the target T2, Human membrane IL-6R on cells. In words: cell-based or functional assay. The source holds these as a separate data set.
Assay [19] addresses B4. As to the kind of experiment: Alphascreen, inhibition of bio-IL-6 binding to IL-6R. This is another data set of the same source.
Description: as §2
The target of assay [20] is T4, Human plasma sIL-6R (human, UniProt P08887 20-355, limits assumed).
T4 construct: also called plasma-derived human IL-6R
T4 sequence (looked up): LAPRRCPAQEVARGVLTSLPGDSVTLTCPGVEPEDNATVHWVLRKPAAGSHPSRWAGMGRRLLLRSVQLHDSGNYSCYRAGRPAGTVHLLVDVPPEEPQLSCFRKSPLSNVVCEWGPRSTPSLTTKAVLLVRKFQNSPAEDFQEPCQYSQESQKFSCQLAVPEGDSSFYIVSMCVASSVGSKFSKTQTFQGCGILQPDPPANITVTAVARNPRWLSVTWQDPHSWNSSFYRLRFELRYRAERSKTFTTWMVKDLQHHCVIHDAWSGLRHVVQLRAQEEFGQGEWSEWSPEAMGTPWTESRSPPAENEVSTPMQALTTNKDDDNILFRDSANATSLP
In words: plasma potency ELISA, human plasma, IL-6 at EC50 (50 ng/mL).

Assay [21] addresses T4, Human plasma sIL-6R. As to the kind of experiment: plasma potency ELISA, human plasma, IL-6 at EC95 (885 ng/mL).
In assay [22] the target is T1, Mouse IL-6R. In words: ELISA: plate coated with 1 µg/ml mouse IL-6R; concentration and detection of this control not told.
In another assay the target is T5, Cyno plasma sIL-6R (cynomolgus monkey, UniProt A0A2K5WN54 60-396).
T5 construct: also called cynomolgus sIL-6R
T5 sequence: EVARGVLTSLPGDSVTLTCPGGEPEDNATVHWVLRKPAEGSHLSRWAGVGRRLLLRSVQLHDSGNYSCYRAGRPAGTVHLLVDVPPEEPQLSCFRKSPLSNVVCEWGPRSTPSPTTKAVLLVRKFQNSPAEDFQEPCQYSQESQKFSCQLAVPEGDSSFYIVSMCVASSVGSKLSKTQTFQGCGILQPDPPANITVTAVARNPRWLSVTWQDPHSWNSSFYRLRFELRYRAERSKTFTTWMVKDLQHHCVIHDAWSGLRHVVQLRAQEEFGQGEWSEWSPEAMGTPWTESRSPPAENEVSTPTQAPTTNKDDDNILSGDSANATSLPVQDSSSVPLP
As to the kind of experiment: plasma potency ELISA, cyno plasma + human IL-6 50 ng/mL; sIL-6R captured on BN-12, bound IL-6 detected; blocked ligand IL-6.

Assay [23] has as its target T4, Human plasma sIL-6R. As to the kind of experiment: plasma potency ELISA, human plasma + human IL-6 50 ng/mL; sIL-6R captured on BN-12, bound IL-6 detected; blocked ligand IL-6.

B1: IL6R01 (VHH)
VHH: EVQLVESGGGLVQPGGSLRLSCAASGFPLDYYAIGWFRQAPGKEREGVSCISSSDGSTYYADSVKGRFTISRDNAKNTVYLQMNSLKPEDTAVYYCALVHTTAQATGVPQREYEYEWWGQGTQVTVSS
notes: also called PMP28E11; not shown: C-terminal c-myc and (His)6 tags
B1: the Kd with Human soluble IL-6R [1] and in the assay with Human soluble IL-6R [6] was 0.4 nM each time. In the assay with Human soluble IL-6R [1], this molecule gave an off-rate constant (koff) of 0.00011 s⁻¹. Further, the kon in the assay with Human soluble IL-6R [1] worked out at 262000 M⁻¹ s⁻¹. For the same molecule, the IC50 in the assay with Human soluble IL-6R [2] was 0.726 nM; in the assay with Human soluble IL-6R [3], 0.73 nM. Further, in the assay with Human soluble IL-6R [4], the “Ref Fab competition (%)” value worked out at 49%. Moreover, the “Residual reference-Fab binding to IL-6R (%)” value with Human soluble IL-6R [5] came to 49%. For the same molecule, the binding result in the assay with Mouse IL-6R [7] is on record as “no binding (tested: 500 nM)”.

B2: IL6R06 (VHH)
VHH: EVQLVESGGGLVQAGGSLRLSCAASGNIFDDNTMGWTWNRQPPGKQRELVAIIATDGSTNYADSVKGRFTISRDNAKNTVYLQMNSLKPEDTAVYYCNLFSLRLGRDYWGQGTQVTVSS
notes: also called PMP32E2; not shown: C-terminal c-myc and (His)6 tags
On to B2, for which, in assay [8], the “IC50 (nM), XG-1 cell proliferation” value was 42.1 nM. The “IC50 (nM), TF1 cell proliferation” value in assay [9] is 138 nM. The “IC50 (nM) XG-1” value in [10] is 42.1 nM. Besides, the dissociation rate constant (koff) amounted to 0.000886 s⁻¹ in the assay with Human soluble IL-6R [11], 0.00757 s⁻¹ with Human soluble IL-6R [1] and 0.000886 s⁻¹ with Human soluble IL-6R [14]. Also, the IC50 with Human soluble IL-6R [2] and with Human soluble IL-6R [3] was 1.21 nM in each case. In addition, the Kd with Human soluble IL-6R [12] and in the assay with Human soluble IL-6R [13] was 7.1 nM throughout. Besides, in the assay with Human soluble IL-6R [4], the “Ref Fab competition (%)” value was 36%. Besides, the “Residual reference-Fab binding to IL-6R (%)” value with Human soluble IL-6R [5] was 36%. Further, in the assay with Human soluble IL-6R [13], the kon came to 1.07e+06 M⁻¹ s⁻¹.

B3: IL6R02 (VHH)
VHH: EVQLVESGGGLVQAGGSLRLSCAASGRTFSSYDMGWYRQAPGKEREFVAVISRSGSSTYYADSVKGRFTISRDNAKNTVYLQMNSLKPEDTAIYYCKAEVVAGDYDYWGQGTQVTVSS
notes: also called PMP30C11; not shown: C-terminal c-myc and (His)6 tags
Regarding B3, the “IC50 (nM), XG-1 cell proliferation” value in assay [8] is 31 nM. Moreover, the “IC50 (nM), TF1 cell proliferation” value in assay [9] worked out at 94.7 nM. The “IC50 (nM) XG-1” value in assay [10] worked out at 31 nM. Also, the koff stood at 0.00294 s⁻¹ with Human soluble IL-6R [11], 0.00294 s⁻¹ with Human soluble IL-6R [1] and 0.00495 s⁻¹ with Human soluble IL-6R [15]. The Kd with Human soluble IL-6R [1] and with Human soluble IL-6R [12] was 5.9 nM throughout. The same molecule displayed a kon in the assay with Human soluble IL-6R [1] of 840000 M⁻¹ s⁻¹. Also, the IC50 in the assay with Human soluble IL-6R [2] and in the assay with Human soluble IL-6R [3] was 1.69 nM each time. Besides, the “Ref Fab competition (%)” value with Human soluble IL-6R [4] stood at 86%. Besides, the “Residual reference-Fab binding to IL-6R (%)” value with Human soluble IL-6R [5] amounted to 86%. For the same molecule, the binding result in the assay with Mouse IL-6R [7] is recorded as “no binding (tested: 500 nM)”.

With B4, the IC50 in the assay with PMP20A11 [16] came to 0.03 nM. Moreover, the “IC50 (read off the curve)” value in the assay with PMP20A11 [17] is around 1 ng/mL.

B5: Reference Fab (Fab, V domains shown)
VH: QVQLQESGPGLVRPSQTLSLTCTVSGYSITSDHAWSWVRQPPGRGLEWIGYISYSGITTYNPSLKSRVTMLRDTSKNQFSLRLSSVTAADTAVYYCARSLARTTAMDYWGQGSLVTVSS
VL: DIQMTQSPSSLSASVGDRVTITCRASQDISSYLNWYQQKPGKAPKLLIYYTSRLHSGVPSRFSGSGSGTDFTFTISSLQPEDIATYYCQQGNTLPYTFGQGTKVEIKR
notes: Built from RVLa and RVHf of EP 0628639; expressed in E. coli periplasm
Turning to B5, the “IC50 (nM), XG-1 cell proliferation” value in [8] is 6 nM. In addition, in [9], the “IC50 (nM), TF1 cell proliferation” value is 9.2 nM. The “IC50 (nM), TF-1 proliferation at 100 IU/mL IL-6” value in assay [18] was determined as 6.26 nM. The IC50 in the assay with Human soluble IL-6R [19] amounted to 0.592 nM; with Human plasma sIL-6R [20], 0.55 nM; in the assay with Human plasma sIL-6R [21] it was 8.47 nM. In addition, the binding result with Mouse IL-6R [22] was “no binding (tested: not given)”. The “IC50 (read off the curve)” value is around 0.1 nM in the assay with Cyno plasma sIL-6R and around 0.3 nM with Human plasma sIL-6R [23].

The term Kd denotes the concentration at which binding is half-saturated. Read a low Kd as a tighter complex. For orientation: koff means the first-order rate constant of dissociation. Higher therefore signals a short-lived complex. A word on the kon: it is the second-order rate constant of association. The IC50 is the concentration that gives 50% inhibition. The low end stands for inhibition by little substance, the high end for a need for much substance.
